Source: patent US20040265325A1
Values joined by “and” are separate entries in the source; they are usually repeats but may differ in a detail not shown here. Equal entries are not always repeated.

Molecular target: CD8+ T cells (T cell receptors) of CMV-seropositive human donors
Experiment: flow cytometry, tetramer staining of CD8+ cells; background that was subtracted

Substance: HIV pol464-472 control tetramer (from UniProt P61769 21-119) (peptide-MHC)
- CD8+ binding percentages to control tetramer: 0.07% and 0.1%
